According to patent US20230212319A1, “NOVEL ANTIGEN BINDING DOMAINS AND SYNTHETIC ANTIGEN RECEPTORS INCORPORATING THE SAME” (University of Southern California, priority 2020, published 2023):
Changes are numbered by the printed parent chain.

What was measured:
[1] = tested on: JNG cells expressing the constructs
Nalm6 cells = assay: JNG assay, co-culture with Nalm6 cells; assay type: cell-based; settings: co-culture with Nalm6
Outline: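 Stable SAR lines in NFAT-GFP Jurkat background; coculture with target line ~4–18 h, E:T ~1:2; flow readout of GFP; positive if %GFP+ exceeds parental line; semi-quantitative grading +/- (~5%) through 5+ (~50%).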

LoVo = assay: JNG NFAT-GFP assay, co-culture with LoVo cells; assay type: cell-based
RAJI cells = assay: JNG assay, co-culture with RAJI cells; assay type: cell-based; settings: JNG cells expressing construct, co-culture with Raji
Outline: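 Jurkat-NFAT-GFP (JNG) cells stably expressing SAR constructs via lentiviral transduction and puromycin/blasticidin selection were cocultured with target cells at E:T ~1:2 for ~4–18 h. NFAT-driven GFP was measured by FACS versus parental JNG cells; scores +/- to 5+ denote ~5–50% GFP-positive cells.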

THP-1 cells = assay: JNG NFAT-GFP induction on co-culture with THP-1
[2] = JNG NFAT-GFP background GFP induction (tonic signaling)
L363-Luc cells = assay: L363 xenograft in NSG mice; settings: for disease control, L363 xenograft: 0.5 × 10^6 L363-Luc i.v., 3 days later 2 × 10^6 SAR-T i.v., compared to control T cells; for survival, L363 xenograft: mouse, in vivo, iv

B1: SEQ ID NO: 22248: Herceptin mimotag tagged SAR (protein)
chain: MALPVTALLLPLALLLHAARPDIQMTQSPSSLSASVGDRVTITCKASDHINNWLAWYQQKPGQAPKLLIYGATTLETGVPSRFSGSGSGTDYTLTISSLQPEDFATYYCQQSWNTPWTFGQGTKLEIKRLEDLKNVFPPEVAVFEPSEAEISHTQKATLVCLATGFYPDHVELSWWVNGKEVHSGVCTDPQPLKEQPALNDSRYCLSSRLRVSATFWQNPRNHFRCQVQFYGLSENDEWTQDRAKPVTQIVSAEAWGRADCGFTSESYQQGVLSATILYEILLGKATLYAVLVSALVLMAMVKRKDSRGRAKRSGSGATNFSLLKQAGDVEENPGPTSATMDWIWRILFLVGAATGAHSGPQLGPYELWELSHGSGPLGIAGIFEQVQLQQPGAELVKPGASVKMSCKASGYAFSSYWINWMKQKPGQGLEWIGQIYPGDGDTNYNGKFKGRATLTADTSSSTAYMQLSSLTSEDSAVYFCARSITTVVGCAMDYWGQGTSVTVSSTRIQNPDPAVYQLRDSKSSDKSVCLFTDFDSQTNVSQSKDSDVYITDKCVLDMRSMDFKSNSAVAWSNKSDFACANAFNNSIIPEDTFFPSPESSCDVKLVEKSFETDTNLNFQNLSVIGFRILLLKVAGFNLLMTLRLWSSRAKRSGSGVKQTLNFDLLKLAGDVESNPGPSRGHMTEYKPTVRLATRDDVPRAVRTLAAAFADYPATRHTVDPDRHIERVTELQELFLTRVGLDIGKVWVADDGAAVAVWTTPESVEAGAVFAEIGPRMAELSGSRLAAQQQMEGLLAPHRPKEPAWFLATVGVSPDHQGKGLGSAVVLPGVEAAERAGVPAFLETSAPRNLPFYERLGFTVTADVEVPEGPRTWCMTRKPGA
modifications: Herceptin mimotag
- cytotoxicity when exposed to antibody [1]: showed cytotoxicity

B2: 22093 (protein)
chain: MALPVTALLLPLALLLHAARPEVQLVESGGGLVQPGGSLRLSCAASGFNIKDTCIGWVRRAPGKEEELVAKICKYSGHTRYADSVKGRFTISADTSKNTAYLQMNSLRAEDTAVYYCAAVSVRDGHYNYWGQGTTVTVSSLEGKPIPNPLLGLDSTGSGEDLKNVFPPEVAVFEPSKAEIAHTQKATLVCLATGFYPDHVELSWWVNGKEVHSGVCTDPQPLKEQPALNDSRYCLSSRLRVSATFWQNPRNHFRCQVQFYGLSENDEWTQDRAKPVTQIVSAEAWGRADCGITSASYHQGVLSATILYEILLGKATLYAVLVSALVLMAMVKRKDSRGRAKRSGSGATNFSLLKQAGDVEENPGPTSTMALPVTALLLPLALLLHAARPDIQMTQSPSSLSASVGDRVTITCKASDHINNWLAWYQQKPGQAPKLLIYGATTLETGVPSRFSGSGSGTDYTLTISSLQPEDFATYYCQQSWNTPWTFGQGTKLEIKRGGGGSGGGGSGGGGSQVQLQQPGAELVKPGASVKMSCKASGYAFSSYWINWMKQKPGQGLEWIGQIYPGDGDTNYNGKFKGRATLTADTSSSTAYMQLSSLTSEDSAVYFCARSITTVVGCAMDYWGQGTSVTVSSTREQKLISEEDGSGIQNPDPAVYQLRDSKSSDKSVCLFTDFDSQTNVSQSKDSDVYITDKCVLDMRSMDFKSNSAVAWSNKSDFACANAFNNSIIPEDTFFPSSDVPCDVKLVEKSFETDTNLNFQNLSVIGFRILLLKVAGFNLLMTLRLWSSRAKRSGSGVKQTLNFDLLKLAGDVESNPGPSRGHMTEYKPTVRLATRDDVPRAVRTLAAAFADYPATRHTVDPDRHIERVTELQELFLTRVGLDIGKVWVADDGAAVAVWTTPESVEAGAVFAEIGPRMAELSGSRLAAQQQMEGLLAPHRPKEPAWFLATVGVSPDHQGKGLGSAVVLPGVEAAERAGVPAFLETSAPRNLPFYERLGFTVTADVEVPEGPRTWCMTRKPGA
- NFAT-GFP ASSAY: Nalm6 (Nalm6 cells): + (refer to approximately 5%, 10%, 20%, 30%, 40% and 50% GFP positive cells)
- NFAT-GFP ASSAY: LoVo (LoVo): +/- (refer to approximately 5%, 10%, 20%, 30%, 40% and 50% GFP positive cells)
- NFAT-GFP ASSAY: Raji (RAJI cells): 2+ (refer to approximately 5%, 10%, 20%, 30%, 40% and 50% GFP positive cells)

B3: SEQ ID NO: 22247: Herceptin mimotag tagged SAR (protein)
chain: MALPVTALLLPLALLLHAARPACPQLGPYELWELSHGTGAVVRGAEFDIQMTQSPSSLSASVGDRVTITCKASDHINNWLAWYQQKPGQAPKLLIYGATTLETGVPSRFSGSGSGTDYTLTISSLQPEDFATYYCQQSWNTPWTFGQGTKLEIKRLEDLKNVFPPEVAVFEPSKAEIAHTQKATLVCLATGFYPDHVELSWWVNGKEVHSGVCTDPQPLKEQPALNDSRYCLSSRLRVSATFWQNPRNHFRCQVQFYGLSENDEWTQDRAKPVTQIVSAEAWGRADCGITSASYHQGVLSATILYEILLGKATLYAVLVSALVLMAMVKRKDSRGRAKRSGSGATNFSLLKQAGDVEENPGPTSATMDWIWRILFLVGAATGAHSGPQVQLQESGGGLAQAGGSLRLSCAASGRTFSMGWFRQAPGKEREFVAAITYSGGSPYYASSVRGRFTISRDNAKNTVYLQMNSLKPEDTAVYYCAANPTYGSDWNAENWGQGTQVTVSSGSGGGGSGGGGSGGGGSFEQVQLQQPGAELVKPGASVKMSCKASGYAFSSYWINWMKQKPGQGLEWIGQIYPGDGDTNYNGKFKGRATLTADTSSSTAYMQLSSLTSEDSAVYFCARSITTVVGCAMDYWGQGTSVTVSSTRIQNPDPAVYQLRDSKSSDKSVCLFTDFDSQTNVSQSKDSDVYITDKCVLDMRSMDFKSNSAVAWSNKSDFACANAFNNSIIPEDTFFPSSDVPCDVKLVEKSFETDTNLNFQNLSVIGFRILLLKVAGFNLLMTLRLWSSRAKRSGSGVKQTLNFDLLKLAGDVESNPGPSRGHMTEYKPTVRLATRDDVPRAVRTLAAAFADYPATRHTVDPDRHIERVTELQELFLTRVGLDIGKVWVADDGAAVAVWTTPESVEAGAVFAEIGPRMAELSGSRLAAQQQMEGLLAPHRPKEPAWFLATVGVSPDHQGKGLGSAVVLPGVEAAERAGVPAFLETSAPRNLPFYERLGFTVTADVEVPEGPRTWCMTRKPGA
modifications: Herceptin mimotag
- cytotoxicity when exposed to antibody [1]: showed cytotoxicity

B4: 21853 (protein)
chain: MALPVTALLLPLALLLHAARPSYVLTQPPSVSVAPGQTARITCGGNNIGGKSVHWYQQPPGQAPVVVVYDDSDRPSGIPERFSGSNSGNTATLTISRVEAGDEAVYYCQVWDSSSDHVVFGGGTKLTVLLEDLKNVFPPEVAVFEPSEAEISHTQKATLVCLATGFYPDHVELSWWVNGKEVHSGVCTDPQPLKEQPALNDSRYCLSSRLRVSATFWQNPRNHFRCQVQFYGLSENDEWTQDRAKPVTQIVSAEAWGRADCGFTSESYQQGVLSATILYEILLGKATLYAVLVSALVLMAMVKRKDSRGRAKRSGSGATNFSLLKQAGDVEENPGPTSMDWIWRILFLVGAATGAHSFEQLQLQESGPGLVKPSETLSLTCTVSGGSISSSSYFWGWIRQPPGKGLEWIGSIYYSGITYYNPSLKSRVTISVDTSKNQFSLKLSSVTAADTAVYYCARHDGAVAGLFDYWGQGTLVTVSSATRIQNPDPAVYQLRDSKSSDKSVCLFTDFDSQTNVSQSKDSDVYITDKCVLDMRSMDFKSNSAVAWSNKSDFACANAFNNSIIPEDTFFPSPESSCDVKLVEKSFETDTNLNFQNLSVIGFRILLLKVAGFNLLMTLRLWSS
- GFP induction upon co-culture with THP-1 (THP-1 cells): no GFP induction
- background GFP induction (tonic signaling) [2]: no background GFP induction
- disease control, L363 xenograft (L363-Luc cells): superior disease control
- survival, L363 xenograft (L363-Luc cells): prolongation of survival

B5: 21852 (protein)
chain: B4 chain with I48L, G50S, S391G, S423T
- GFP induction upon co-culture with THP-1 (THP-1 cells): no GFP induction
- background GFP induction (tonic signaling) [2]: no background GFP induction
- disease control, L363 xenograft (L363-Luc cells): superior disease control
- survival, L363 xenograft (L363-Luc cells): prolongation of survival

B6: 22007 (protein)
chain: MALPVTALLLPLALLLHAARPQLQLQESGPGLVKPSETLSLTCTVSGDSISSGDYYWGWIRQPPGKGLEWIGHIYYSGVTYYNPSLKSRVTISVDTSRNQFSLKLSSVTAADTAVYYCTREDSSNWRSRGQGTLVTVSSLEDLKNVFPPEVAVFEPSEAEISHTQKATLVCLATGFYPDHVELSWWVNGKEVHSGVCTDPQPLKEQPALNDSRYCLSSRLRVSATFWQNPRNHFRCQVQFYGLSENDEWTQDRAKPVTQIVSAEAWGRADCGFTSESYQQGVLSATILYEILLGKATLYAVLVSALVLMAMVKRKDSRGRAKRSGSGATNFSLLKQAGDVEENPGPTSMDWIWRILFLVGAATGAHSFEVQLVESGGGLVQPGGSLRLSCAASGFNIKDTCIGWVRRAPGKEEELVADICPYKGSTRYADSVKGRFTISADTSKNTAYLQMNSLRAEDTAVYYCAIVSARDGYYNYWGQGTTVTVSSTRIQNPDPAVYQLRDSKSSDKSVCLFTDFDSQTNVSQSKDSDVYITDKCVLDMRSMDFKSNSAVAWSNKSDFACANAFNNSIIPEDTFFPSPESSCDVKLVEKSFETDTNLNFQNLSVIGFRILLLKVAGFNLLMTLRLWSSRAKRSGSGVKQTLNFDLLKLAGDVESNPGPSRGHMTEYKPTVRLATRDDVPRAVRTLAAAFADYPATRHTVDPDRHIERVTELQELFLTRVGLDIGKVWVADDGAAVAVWTTPESVEAGAVFAEIGPRMAELSGSRLAAQQQMEGLLAPHRPKEPAWFLATVGVSPDHQGKGLGSAVVLPGVEAAERAGVPAFLETSAPRNLPFYERLGFTVTADVEVPEGPRTWCMTRKPGA
- NFAT-GFP ASSAY: LoVo (LoVo): +/- (refer to approximately 5%, 10%, 20%, 30%, 40% and 50% GFP positive cells)
- NFAT-GFP ASSAY: Raji (RAJI cells): +/- (refer to approximately 5%, 10%, 20%, 30%, 40% and 50% GFP positive cells)
